Source: PMC11423568, “Functional investigation of the two ClpPs and three ClpXs in Myxococcus xanthus DK1622” (mSphere, 2024)

T1: Myxococcus xanthus DK1622 trigger factor Tig (MXAN_2013), His- or MBP-tagged, for pulldown (Myxococcus xanthus DK1622, UniProt Q1DAT1 1-425)
T1 construct: ribosome-associated molecular chaperone trigger factor, Myxococcus xanthus DK1622, locus MXAN_2013; source: E. coli BL21, purified (Ni Sepharose for His tag, maltose elution for MBP)
T1 sequence (looked up): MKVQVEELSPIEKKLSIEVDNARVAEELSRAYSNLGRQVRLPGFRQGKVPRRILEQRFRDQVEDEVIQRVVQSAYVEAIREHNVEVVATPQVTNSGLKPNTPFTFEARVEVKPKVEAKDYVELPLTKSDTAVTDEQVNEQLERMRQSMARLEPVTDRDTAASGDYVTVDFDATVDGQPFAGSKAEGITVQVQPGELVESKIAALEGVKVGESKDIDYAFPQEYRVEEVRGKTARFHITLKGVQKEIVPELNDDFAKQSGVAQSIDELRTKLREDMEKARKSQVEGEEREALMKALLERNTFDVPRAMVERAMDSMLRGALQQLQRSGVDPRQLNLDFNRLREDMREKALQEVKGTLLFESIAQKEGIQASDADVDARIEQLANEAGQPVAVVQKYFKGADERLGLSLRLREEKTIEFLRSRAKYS


Assays:
[1] = molecular target: the molecule itself; test: cross-linking; 20 µM ClpP1 or ClpP2 in 20 mM HEPES, 100 mM NaCl, 1 mM EDTA, pH 7.5, 25°C; glutaraldehyde (0.1% in methods, 1% in legend) 10 min, quenched with 200 mM Tris-HCl pH 7.5; SDS-PAGE
[2] = molecular target: T1, Myxococcus xanthus DK1622 trigger …; test: pull-down; purified His-tagged and MBP-tagged proteins mixed, room temperature 30 min, passed through Ni-NTA resin (His-tagged protein held), washed with suspension buffer, eluted with 250 mM imidazole; MBP mixed with His-labeled protein as negative control; conditions: both partners purified

Binder | stoichiometry N [1] | binding result [2]
Myxococcus xanthus DK1622 ClpP1 (MXAN_2014), no tag (enzyme, ClpP1, peptidase subunit of ClpXP, Myxococcus xanthus DK1622, locus MXAN_2014; also called nonlabeled ClpP1; nontagged ClpP1; source: E. coli BL21, purified; copies: 14) not shown | 14 | 
Myxococcus xanthus DK1622 ClpP1 (MXAN_2014), His- or MBP-tagged, for pulldown (enzyme, ClpP1, peptidase subunit of ClpXP, Myxococcus xanthus DK1622, locus MXAN_2014; source: E. coli BL21, purified (Ni Sepharose for His tag, maltose elution for MBP)) not shown |  | binds
